Assay results published in patent publication US20100323443A1 (BIOLAMINA, published 2010).
Blank lines part the entries; values can stand above or below the molecule they belong to.

What was measured:
[1] = target: β1-integrin on mouse embryonic stem cells (mouse) (UniProt P09055); assay: cell-based or functional assay
[2] = target: T1, human recombinant laminin-511 (human, UniProt O15230 36-3695; P07942 22-1786; P11047 34-1609); assay: summary of the adhesion-blocking assays
T1 construct: Coated on plates (30 ug/ml) in the adhesion assays; also called laminin-10
Protocol: Attachment assay was performed as described ([Extracellular Matrix Protocols, 2000). Briefly, MaxiSorp 96-well plates (Nunc) coated by extracellular matrix proteins as described above and blocked by 1% heat-denatured BSA solution. Undifferentiated embryonic cells were plated at cell density of 800 cell/mm² upon extracellular matrix-coated plates and were left to adhere for 1 hour at 37° C. Non-adherent cells were washed away, and adherent cells were fixed for 20 min by 5% glutaraldehyde, stained by 0.1% Crystal Violet.
Adhesion-blocking assays were performed as described previously. […] Non-attached cells were removed and the remaining cells were fixed, stained and quantified as described above (Cell adhesion assay). Error bars show standard error (SEM).

- Blocking those integrins inhibits ES cell adhesion to LN-511 [1]: 100%
Molecule: human recombinant laminin-511, O15230 36-3695; P07942 22-1786; P11047 34-1609

- binding result [2]: binds
B1: α6β1 integrin on mouse embryonic stem cells (receptor)
chain 1: FNLDTREDNVIRKSGDPGSLFGFSLAMHWQLQPEDKRLLLVGAPRAEALPLQRANRTGGLYSCDITSRGPCTRIEFDNDADPMSESKEDQWMGVTVQSQGPGGKVVTCAHRYEKRQHVNTKQESRDIFGRCYVLSQNLRIEDDMDGGDWSFCDGRLRGHEKFGSCQQGVAATFTKDFHYIVFGAPGTYNWKGIVRVEQKNNTFFDMNIFEDGPYEVGGETDHDESLVPVPANSYLGFSLDSGKGIVSKDDITFVSGAPRANHSGAVVLLKRDMKSAHLLPEYIFDGEGLASSFGYDVAVVDLNADGWQDIVIGAPQYFDRDGEVGGAVYVYINQQGKWSNVKPIRLNGTKDSMFGISVKNIGDINQDGYPDIAVGAPYDDLGKVFIYHGSPTGIITKPTQVLEGTSPYFGYSIAGNMDLDRNSYPDLAVGSLSDSVTIFRSRPVINILKTITVTPNRIDLRQKSMCGSPSGICLKVKACFEYTAKPSGYNPPISILGILEAEKERRKSGLSSRVQFRNQGSEPKYTQELTLNRQKQRACMEETLWLQENIRDKLRPIPITASVEIQEPSSRRRVNSLPEVLPILNSNEAKTVQTDVHFLKEGCGDDNVCNSNLKLEYKFGTREGNQDKFSYLPIQKGIPELVLKDQKDIALEITVTNSPSDPRNPRKDGDDAHEAKLIATFPDTLTYSAYRELRAFPEKQLSCVANQNGSQADCELGNPFKRNSSVTFYLILSTTEVTFDTTDLDINLKLETTSNQDNLAPITAKAKVVIELLLSVSGVAKPSQVYFGGTVVGEQAMKSEDEVGSLIEYEFRVINLGKPLKNLGTATLNIQWPKEISNGKWLLYLMKVESKGLEQIVCEPHNEINYLKLKESHNSRKKRELPEKQIDDSRKFSLFPERKYQTLNCSVNVRCVNIRCPLRGLDSKASLVLRSRLWNSTFLEEYSKLNYLDILLRASIDVTAAAQNIKLPHAGTQVRVTVFPSKTVAQYSGVAWWIILLAVLAGILMLALLVFLLWKCGFFKRSRYDDSIPRYHAVRIRKEEREIKDEKHMDNLEKKQWITKWNENESYS
chain 2: QTDKNRCLKANAKSCGECIQAGPNCGWCTNTTFLQEGMPTSARCDDLEALKKKGCQPSDIENPRGSQTIKKNKNVTNRSKGMAEKLRPEDITQIQPQQLLLKLRSGEPQKFTLKFKRAEDYPIDLYYLMDLSYSMKDDLENVKSLGTDLMNEMRRITSDFRIGFGSFVEKTVMPYISTTPAKLRNPCTSEQNCTSPFSYKNVLSLTDRGEFFNELVGQQRISGNLDSPEGGFDAIMQVAVCGSLIGWRNVTRLLVFSTDAGFHFAGDGKLGGIVLPNDGQCHLENNVYTMSHYYDYPSIAHLVQKLSENNIQTIFAVTEEFQPVYKELKNLIPKSAVGTLSGNSSNVIQLIIDAYNSLSSEVILENSKLPDGVTINYKSYCKNGVNGTGENGRKCSNISIGDEVQFEISITANKCPNKESETIKIKPLGFTEEVEVVLQFICKCNCQSHGIPASPKCHEGNGTFECGACRCNEGRVGRHCECSTDEVNSEDMDAYCRKENSSEICSNNGECVCGQCVCRKRDNTNEIYSGKFCECDNFNCDRSNGLICGGNGVCRCRVCECYPNYTGSACDCSLDTGPCLASNGQICNGRGICECGACKCTDPKFQGPTCETCQTCLGVCAEHKECVQCRAFNKGEKKDTCAQECSHFNLTKVESREKLPQPVQVDPVTHCKEKDIDDCWFYFTYSVNGNNEAIVHVVETPDCPTGPDIIPIVAGVVAGIVLIGLALLLIWKLLMIIHDRREFAKFEKEKMNAKWDTGENPIYKSAVTTVVNPKYEGK
notes: whole, on cells

- binding result [2]: binds
B2: αVβ1 integrin on mouse embryonic stem cells (receptor)
chain 1: FNLDVESPAEYAGPEGSYFGFAVDFFEPSTSSRMFLLVGAPKANTTQPGIVEGGQVLKCECSSSRRCQPIEFDSTGNRDYAKDDPLEFKSHQWFGASVRSKQDKILACAPLYHWRTEMKQEREPVGTCFLQDGTKTVEYAPCRSKNIDADGQGFCQGGFSIDFTKADRVLLGGPGSFYWQGQLISDQVAEIISKYDPNVYSIKYNNQLATRTAQAIFDDSYLGYSVAVGDFNGDGIEDFVSGVPRAARTLGMVYIYDGKNMSSLHNFTGEQMAAYFGFSVAATDINGDDYADVFIGAPLFMDRGSDGKLQEVGQVSVSLQRAVGDFQTTKLNGFEVFARFGSAIAPLGDLDQDGFNDIAIAAPYGGEDKKGLVYIFNGRSTGLNSVPSQILEGQWAAQSMPPSFGYSMKGATDVDRNGYPDLVVGAFGVDRAVLYRARPVVTVNAGLEVYPSILNQDNKICPLPGTALKVSCFNVRFCLKADGKGTLPRKLHFQVELLLDKLKQKGAIRRALFLHNRSPVHSKTMTVFRGGQMQCEELVAYLRDESEFRDKLTPITIFMEYRLDQRTAADATGLQPILNQFTPANVSRQAHILLDCGEDNVCKPKLEVSVNSDQKKIYIGDDNPLTLTVKAQNQGEGAYEAELIVSIPPQADFIGVVRNNEALARLSCAFKTENQTRQVVCDLGNPMKAGTQLLAGLRFSVHQQSEMDTSVKFDLKIQSSNSFDNVSPVVSYKVDLAVLAAVEIRGVSSPDHIFLPIPNWEYKENPETEEDVGPIVQHIYELRNNGPSSFSKAILNLQWPYKYNNNTLLYILHYDIDGPMNCTADTEINPLRIKTPEKNDTAAAGQGERNHLITKRDLTLREGDVHTLGCGIAKCLQITCQVGRLDRGKSAILYVKSLLWTETFMNKENQNHSYSLKSSASFNIIEFPYKNLPIEDLFNSTLVTTNITWGIQPAPMPVPVWVIILAVLAGLLLLAVLVFVMYRMGFFKRVRPPQEEQEREQLQPHENGEGNSET
chain 2: B1 chain 2
notes: whole, on cells
